Molecular target: T1, recombinant LRMDA (human, UniProt A0A087WWI0 1-226)
T1 construct: synthetic gene codon-optimised for S. frugiperda; also called tag-less LRMDA; purified LRMDA; source: Sf21 insect cells (baculovirus), purified (HaloLink resin, TEV cleavage); not shown: HaloTag, N-terminal, cleaved
T1 sequence (looked up): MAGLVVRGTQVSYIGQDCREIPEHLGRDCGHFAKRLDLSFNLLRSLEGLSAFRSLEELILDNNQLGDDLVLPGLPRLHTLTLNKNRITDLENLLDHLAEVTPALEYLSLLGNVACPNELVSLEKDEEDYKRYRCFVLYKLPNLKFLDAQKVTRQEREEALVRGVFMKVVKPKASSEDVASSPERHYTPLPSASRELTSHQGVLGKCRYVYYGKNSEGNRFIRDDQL
Assay: pull-down; Retriever (0.5 µM, His-tagged VPS29) held on TALON resin; 1 µM LRMDA and/or 1 µM RAB32 added; 50 mM HEPES pH 7.2, 150 mM NaCl, 2 mM β-mercaptoethanol, 0.1% Triton X-100; 45 min at 4 °C; washes with 10 mM imidazole; LRMDA binding slightly increased in the presence of RAB32
Conditions: both partners purified

B1: recombinant RAB32 (natural protein, human, UniProt Q13637 1-225, looked up)
chain: MAGGGAGDPGLGAAAAPAPETREHLFKVLVIGELGVGKTSIIKRYVHQLFSQHYRATIGVDFALKVLNWDSRTLVRLQLWDIAGQERFGNMTRVYYKEAVGAFVVFDISRSSTFEAVLKWKSDLDSKVHLPNGSPIPAVLLANKCDQNKDSSQSPSQVDQFCKEHGFAGWFETSAKDNINIEEAARFLVEKILVNHQSFPNEENDVDKIKLDQETLRAENKSQCC
notes: RAB32, human; synthetic gene codon-optimised for S. frugiperda; also called tag-less RAB32; purified RAB32; source: Sf21 insect cells (baculovirus), purified (Glutathione Sepharose, TEV cleavage); not shown: GST, N-terminal, cleaved
B1: binds.
